The source of these data is US12296006B2, “Anti-LY6H antibodies and antibody drug conjugates” (Bluefin BioMedicine, Inc., priority 2017, dated 2025).

The subject of one test is H446 cells. The test is described as follows: Internalization assay in H446 cells (LAMP1 co-staining). Type of test: cell-based, human. Particulars: live H446 cells incubated with antibody at 37° C., fixed, permeablized, LAMP1 co-stain. Here is the method: Live H446 cells were incubated with 12G7 for 2 hours, cells were then fixed, permeablized, and co-stained with LAMP1 antibody.
Live H446 cells were incubated with 12G7 antibody for 30 minutes at 37° C. After cytospin, cells were fixed with 4% PFA and permeablized with 100% methanol, and stained with LAMP1 antibody (#9091, Cell Signaling Technology, Inc.).

A further test has as its system DMS79. The test is described as follows: Anti-Ly6H antibodies binding to endogenous cell lines by flow cytometry: DMS79. Further details: species or system human; key: (−): No binding; (+): Weak binding; (++): Moderate binding; (+++): Strong binding; (++++): Very strong binding. Particulars: primary antibodies 1 ug/ml, live cells on ice 30 minutes. Here is the method: (§1) Staining for flow cytometry was performed in 1× cold PBS with 0.5% BSA. Primary antibodies (1 ug/ml) were incubated with live cells on ice for 30 minutes, after a brief wash, cells were incubated with Alexa Fluro® 488-conjugated anti-human IgG secondary antibody @1:1000 (709-546-149, Jackson ImmunoResearch). Acquisition of the data was performed on a MACSQuant© Flow Cytometers (Miltenyi Biotec) and analyzed with FlowJo software.
(§2) Fully human antibodies against LY6H were generated by hybridoma procedures. Briefly, H2L2 mice were immunized with either recombinant human Ly6H-ECD or BaF3 cells over-expressing LY6H and boosted with rabbit splenocytes expressing full length human LY6H or with ECD of LY6H recombinant protein. Splenocytes were fused with the mouse myeloma cell line X63-Ag8.653. Clones from H2L2 mice were identified by immunofluorescence (IF) based high content screening (HCS) on 293 cells overexpressing hLY6H, ratLy6H, and parental 293 cells not expressing LY6H, as well as endogenous small cell lung cancer (SCLC) cell line, H446. […] 270 hits were cryopreserved and stored in liquid nitrogen. Approximately 100 clones were selected for molecular cloning. Based on unique CDR3 sequences from the heavy chain variable domain, 10 antibodies from 8 families were chosen and confirmed by flow cytometry (MACSQuant® miltenybiotec.com) on the following cell lines. The small-cell-lung cancer cells (SCLC) included H446, DMS79, and H526 cells. The T-cell acute lymphoblastic leukemia (T-ALL) cancer cells included MOLT3 and KE-37 cells.
On the technique in general: A flow cytometer gives signals particle by particle.

A further test relates to EOL1. The experiment in a line: Anti-Ly6H antibodies binding to endogenous cell lines by flow cytometry: EOL1. Further details: species or system human; key: (−): No binding; (+): Weak binding; (++): Moderate binding; (+++): Strong binding; (++++): Very strong binding. Particulars: primary antibodies 1 ug/ml, live cells on ice 30 minutes. The procedure:
as §1
as §2, with “The small-cell-lung cancer cells (SCLC) included H446, DMS79, and H526 cells. The T-cell acute lymphoblastic leukemia (T-ALL) cancer cells included MOLT3 and KE-37 cells.” left out

A further test has as its system KE-37. The test is described as follows: Anti-Ly6H antibodies binding to endogenous cell lines by flow cytometry: KE-37. On the set-up: species or system human; key: (−): No binding; (+): Weak binding; (++): Moderate binding; (+++): Strong binding; (++++): Very strong binding. As to conditions: primary antibodies 1 ug/ml, live cells on ice 30 minutes. Here is the method:
as §1, §2

The target in test [1] is H446, DMS79, H526, and MOLT3. The experiment in a line: Measurement of antibody EC50 by flow cytometry. As to conditions: 100 nM to 0.1 nM antibody. Type of test: binding, human. The procedure: The assay uses 3-5 fold dilutions (from 100 nM to 0.1 nM) of antibody of a stock antibody concentration (100 nM) in binding buffer. Serial diluted antibodies were incubated with live cells on ice for 30 minutes, after a brief wash, cells were incubated with Alexa Fluro® 488-conjugated anti-human IgG secondary antibody @1:100, or 15 ug/ml (709-546-149, Jackson ImmunoResearch). Acquisition of the MFI (Median Fluorescent Intensity) was performed on a MACSQuant® Flow Cytometers (Miltenyi Biotec). EC50 was calculated using Dose-response EC50 shift by global fitting from GraphPad Prism.
EC50 or the concentration of antibody that gives half-maximal binding is determined by direct and saturable binding of an antibody dilution series to both target positive and negative cell lines. An estimate of affinity is interpreted from one-half the concentration at which antibody binding first achieves saturation. EC50 was measured in the following cell lines H446, DMS79, H526, and MOLT3 (FIG. 4). Though EC50 may not provide an accurate measure of affinity, it allows for ranking ordering of antibodies. 12G7, 11D9, 10B10, and 6D11 were ranked top, followed by 34H6, 1F8, and 2B11.

The test system of another test is H446. The experiment in a line: Anti-Ly6H antibodies binding to endogenous cell lines by flow cytometry: H446. Further details: species or system human; key: (−): No binding; (+): Weak binding; (++): Moderate binding; (+++): Strong binding; (++++): Very strong binding. Particulars: primary antibodies 1 ug/ml, live cells on ice 30 minutes. The procedure:
as §1, §2

Another test relates to H69. The experiment in a line: Anti-Ly6H antibodies binding to endogenous cell lines by flow cytometry: H69. As to conditions: primary antibodies 1 ug/ml, live cells on ice 30 minutes. On the set-up: species or system human; key: (−): No binding; (+): Weak binding; (++): Moderate binding; (+++): Strong binding; (++++): Very strong binding. Here is the method:
as §1
as §2, with “The small-cell-lung cancer cells (SCLC) included H446, DMS79, and H526 cells. The T-cell acute lymphoblastic leukemia (T-ALL) cancer cells included MOLT3 and KE-37 cells.” left out

The subject of test [2] is LY6H positive SCLC and T cell acute lymphoblastic leukemia (T-ALL) cell lines. The experiment in a line: Flow cytometry binding of 12G7 to SCLC and T-ALL cell lines (FIG. 2). On the set-up: species or system human. The procedure:
Dotted lines represent LY6H antibody.
as §1
as §2, with “Based on unique CDR3 sequences from the heavy chain variable domain, 10 antibodies from 8 families were chosen and confirmed by flow cytometry (MACSQuant® miltenybiotec.com) on the following cell lines. The small-cell-lung cancer cells (SCLC) included H446, DMS79, and H526 cells. The T-cell acute lymphoblastic leukemia (T-ALL) cancer cells included MOLT3 and KE-37 cells.” left out

The subject of the next test is MOLT3. The experiment in a line: Anti-Ly6H antibodies binding to endogenous cell lines by flow cytometry: MOLT3. Particulars: primary antibodies 1 ug/ml, live cells on ice 30 minutes. On the set-up: species or system human; key: (−): No binding; (+): Weak binding; (++): Moderate binding; (+++): Strong binding; (++++): Very strong binding. Here is the method:
as §1, §2

B1: 12G7: human anti-LY6H antibody, VH SEQ ID NO: 22, VL SEQ ID NO: 26 (antibody, V domains shown)
VH: QVQLQQWGAGLLKPSETLSLTCAVYGGSFSGYYWSWIRQPPGKGLEWIGEINHSGSTYYNPSLKSRVTMSVDTSKNQFSLKLSSVTAADTAVYYCAKRWELGAFDIWGQGTMVTVSS
VL: DIQMTQSPSSLSASVGDRVTITCRASQGISNYLAWYQQKPGKVPKLLIYAASTLQSGVPSRFSGSGSGTDFTLTISSLQPEDVATYYCQKYNSAPRTFGQGTKLEIK
Consider B1, for which the “internalization / co-localization with LAMP1” value with H446 cells is “internalization”. In the test on DMS79, the “binding by flow cytometry, DMS79” value is listed as “(+++)”. The “binding by flow cytometry, EOL1” value with EOL1 is “(−)”. Also, the “binding by flow cytometry, KE-37” value with KE-37 is on record as “(++++)”. In addition, the “rank ordering of antibodies by EC50 (half-maximal binding)” value (“rank ordering of antibodies by EC50” below) in test [1] was “ranked top”. In addition, the “binding by flow cytometry, H446” value in the test on H446 was “(++++)”. The “binding by flow cytometry, H69” value in the test with H69 is reported as “(−)”. Further, the “binding to LY6H positive SCLC and T-ALL cell lines” value in [2] is given as “binds”. Further, the “binding by flow cytometry, MOLT3” value in the test with MOLT3 is reported as “(+++)”.

B2: 10B10: human anti-LY6H antibody, VH SEQ ID NO: 60, VL SEQ ID NO: 26 (antibody, V domains shown)
VH: QVQLQQWGAGLLKPSETLSLTCAVYGGSFSGYYWHWIRQPPGKGLEWIGEINHSESTKYNPSLKSRVTISVDTSKNQFSLKLSSVTGADTAVYYCARGQHIVVVTDSLGDYWGQGTLVTVSS
VL: DIQMTQSPSSLSASVGDRVTITCRASQGISNYLAWYQQKPGKVPKLLIYAASTLQSGVPSRFSGSGSGTDFTLTISSLQPEDVATYYCQKYNSAPRTFGQGTKLEIK
On to B2, for which, in the test with DMS79, the “binding by flow cytometry, DMS79” value is given as “(+++)”. Also, the “binding by flow cytometry, KE-37” value in the test on KE-37 is “(++++)”. Besides, the “rank ordering of antibodies by EC50” value in [1] is recorded as “ranked top”. For the same molecule, in the test on H446, the “binding by flow cytometry, H446” value was “(++++)”. For the same molecule, the “binding by flow cytometry, MOLT3” value in the test on MOLT3 was “(+++)”.

B3: 6D11: human anti-LY6H antibody, VH SEQ ID NO: 1, VL SEQ ID NO: 5 (antibody, V domains shown)
VH: QVQLQQWGAGLFKPSETLSLTCAVYGGSFSGSLWSWIRQPPGKGLEWIGEINHSGSTNYTPSLKSRVTISVDTSKNQFSLKLTSVTAADTAVYYCARGRHIVVVTAIHSPFDYWGQGTLVTVSS
VL: DIQMTQSPSSLSASVGDRVTITCRASQGISNYLAWYQQKPGKVPKLLIFAASTLQSGVPSRFSGSGSGTDFTLTISSLQPEDVATYYCQKYNSAPRTFGQGTKLEIK
For the molecule B3, in the test with DMS79, the “binding by flow cytometry, DMS79” value is listed as “(+++)”. The “binding by flow cytometry, KE-37” value with KE-37 is “(++++)”. Further, the “rank ordering of antibodies by EC50” value in test [1] was “ranked top”. For the same molecule, the “binding by flow cytometry, H446” value in the test on H446 is on record as “(++++)”. For the same molecule, the “binding by flow cytometry, MOLT3” value in the test on MOLT3 is recorded as “(+++)”.
